{"source": "paper PMC6707866", "origin": "cited, not measured here", "biological_target": "Bag3 (Homo sapiens) (UniProt O95817)", "sequence (O95817 2-575)": "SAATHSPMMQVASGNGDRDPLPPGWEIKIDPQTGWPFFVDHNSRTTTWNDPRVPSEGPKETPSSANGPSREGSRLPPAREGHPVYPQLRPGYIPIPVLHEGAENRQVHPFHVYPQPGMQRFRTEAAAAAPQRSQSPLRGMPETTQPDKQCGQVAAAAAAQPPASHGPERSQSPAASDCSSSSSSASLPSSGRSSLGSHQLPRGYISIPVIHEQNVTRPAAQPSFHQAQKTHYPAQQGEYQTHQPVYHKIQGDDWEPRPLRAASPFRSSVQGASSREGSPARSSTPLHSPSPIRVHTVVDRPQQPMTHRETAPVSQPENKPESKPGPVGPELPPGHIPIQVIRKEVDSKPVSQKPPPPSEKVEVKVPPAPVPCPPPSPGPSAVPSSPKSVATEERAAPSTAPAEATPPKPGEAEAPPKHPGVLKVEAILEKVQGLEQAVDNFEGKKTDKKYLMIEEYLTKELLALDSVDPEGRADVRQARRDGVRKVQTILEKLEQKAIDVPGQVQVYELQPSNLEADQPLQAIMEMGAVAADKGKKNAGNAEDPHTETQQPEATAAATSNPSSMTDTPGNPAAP", "note": "pKd: −log10 of the molar value."}
{"substance": "Hsp70 (from UniProt P0DMV8)", "values": [{"measurement": "pKd", "value": 7.60}]}
